How the values were obtained:
[1] = target: Full-length HIV-1 YU2 envelope glycoproteins (HIV-1, strain YU2) (UniProt P35961)
[2] = target: HIV-1 AD8 envelope glycoproteins (HIV-1, strain AD8)

“Four-domain soluble CD4 (domain or fragment)” gave an IC50 of sCD4 for inhibition of infection of CD4+CCR5+ Cf2Th cells by recombinant HIV-1(YU2), luciferase activity [1] of 12 nM and an IC50 of sCD4 for inhibition of infection of CD4+CCR5+ Cf2Th cells by recombinant HIV-1(AD8), luciferase activity [2] of 80 nM.
